Measurements: publication PMC12416549 (2024)
Changes are numbered by the printed parent chain. Names and notes keep the numbering of the source. One block for each binder: values may come before it.

Biological target: T1, TNFR1 (Homo sapiens, UniProt P19438)
T1 chain: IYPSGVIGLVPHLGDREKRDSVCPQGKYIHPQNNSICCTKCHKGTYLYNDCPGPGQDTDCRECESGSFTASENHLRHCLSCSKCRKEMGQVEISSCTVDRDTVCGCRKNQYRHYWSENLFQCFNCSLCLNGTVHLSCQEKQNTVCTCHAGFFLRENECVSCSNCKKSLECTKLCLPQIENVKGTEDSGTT
Experiment: yeast display SC50

B3: S53T (designed binder)
chain: MTLQELLREEALRRAEAEAFRYALELLAEKFPEQKEYLLDLAEEIESQIRSLTGVDVEDVRKFLDKEWAWVKELLAEHPAELAEVEAARAARLAELRAEVEAKVAA
apparent Kd (screen): 0.49 nM

B7: A76F (designed binder)
chain: B3 chain with T53S, A76F
apparent Kd (screen): 0.446 nM

B8: E16G (designed binder)
chain: B3 chain with E16G, T53S
apparent Kd (screen): 0.593 nM

B9: Y37T (designed binder)
chain: B3 chain with Y37T, T53S
apparent Kd (screen): 10.4 nM

B10: E25M (designed binder)
chain: B3 chain with E25M, T53S
apparent Kd (screen): 0.368 nM

B11: Q48H (designed binder)
chain: B3 chain with Q48H, T53S
apparent Kd (screen): 0.653 nM

B12: V60R (designed binder)
chain: B3 chain with T53S, V60R
apparent Kd (screen): 12.5 nM

B13: V60S (designed binder)
chain: B3 chain with T53S, V60S
apparent Kd (screen): 0.446 nM

B14: L75W (designed binder)
chain: B3 chain with T53S, L75W
apparent Kd (screen): 1.16 nM

B15: V57I (designed binder)
chain: B3 chain with T53S, V57I
apparent Kd (screen): 2.73 nM

B16: Q4A (designed binder)
chain: B3 chain with Q4A, T53S
apparent Kd (screen): 0.718 nM

B21: E36M (designed binder)
chain: B3 chain with E36M, T53S
apparent Kd (screen): 0.49 nM

B24: Q4H (designed binder)
chain: B3 chain with Q4H, T53S
apparent Kd (screen): 0.79 nM

B25: L39S (designed binder)
chain: B3 chain with L39S, T53S
apparent Kd (screen): 2.25 nM

B26: V55M (designed binder)
chain: B3 chain with T53S, V55M
apparent Kd (screen): 2.73 nM

B31: K66C (designed binder)
chain: B3 chain with T53S, K66C
apparent Kd (screen): 1.4 nM

B34: S51I (designed binder)
chain: B3 chain with S51I, T53S
apparent Kd (screen): 1.86 nM

B35: E10A (designed binder)
chain: B3 chain with E10A, T53S
apparent Kd (screen): 5.31 nM

B36: E33Q (designed binder)
chain: B3 chain with E33Q, T53S
apparent Kd (screen): 0.49 nM

B37: A42H (designed binder)
chain: B3 chain with A42H, T53S
apparent Kd (screen): 3 nM

B38: K72E (designed binder)
chain: B3 chain with T53S, K72E
apparent Kd (screen): 0.869 nM

B39: D40G (designed binder)
chain: B3 chain with D40G, T53S
apparent Kd (screen): 1.05 nM

B40: V55S (designed binder)
chain: B3 chain with T53S, V55S
apparent Kd (screen): 1.86 nM

B41: L52G (designed binder)
chain: B3 chain with L52G, T53S
apparent Kd (screen): 1.27 nM

B42: E5F (designed binder)
chain: B3 chain with E5F, T53S
apparent Kd (screen): 0.653 nM

B43: Q4I (designed binder)
chain: B3 chain with Q4I, T53S
apparent Kd (screen): 0.446 nM

More lines, now with the values ahead:

apparent Kd (screen): 0.49 nM
B1: V85M (designed binder)
chain: B3 chain with T53S, V85M

apparent Kd (screen): 0.446 nM
B2: K103R (designed binder)
chain: B3 chain with T53S, K103R

apparent Kd (screen): 0.956 nM
B4: E101S (designed binder)
chain: B3 chain with T53S, E101S

apparent Kd (screen): 1.86 nM
B5: K103L (designed binder)
chain: B3 chain with T53S, K103L

apparent Kd (screen): 0.653 nM
B6: A87L (designed binder)
chain: B3 chain with T53S, A87L

apparent Kd (screen): 0.718 nM
B17: E84A (designed binder)
chain: B3 chain with T53S, E84A

apparent Kd (screen): 0.593 nM
B18: A90V (designed binder)
chain: B3 chain with T53S, A90V

apparent Kd (screen): 3 nM
B19: E86L (designed binder)
chain: B3 chain with T53S, E86L

apparent Kd (screen): 0.49 nM
B20: R92I (designed binder)
chain: B3 chain with T53S, R92I

apparent Kd (screen): 0.718 nM
B22: E84Y (designed binder)
chain: B3 chain with T53S, E84Y

apparent Kd (screen): 0.653 nM
B23: E86C (designed binder)
chain: B3 chain with T53S, E86C

apparent Kd (screen): 0.539 nM
B27: A98T (designed binder)
chain: B3 chain with T53S, A98T

apparent Kd (screen): 0.593 nM
B28: E77M (designed binder)
chain: B3 chain with T53S, E77M

apparent Kd (screen): 0.593 nM
B29: R92K (designed binder)
chain: B3 chain with T53S, R92K

apparent Kd (screen): 0.49 nM
B30: A80E (designed binder)
chain: B3 chain with T53S, A80E

apparent Kd (screen): 0.539 nM
B32: K103Q (designed binder)
chain: B3 chain with T53S, K103Q

apparent Kd (screen): 1.05 nM
B33: R97C (designed binder)
chain: B3 chain with T53S, R97C
